From patent US20190177415A1 (PIERRE FABRE MEDICAMENT, published 2019)

T1: C10orf54 (antigen of the KD values in Table 42) (human, UniProt Q9H7M9 33-311, limits assumed)
T1 sequence: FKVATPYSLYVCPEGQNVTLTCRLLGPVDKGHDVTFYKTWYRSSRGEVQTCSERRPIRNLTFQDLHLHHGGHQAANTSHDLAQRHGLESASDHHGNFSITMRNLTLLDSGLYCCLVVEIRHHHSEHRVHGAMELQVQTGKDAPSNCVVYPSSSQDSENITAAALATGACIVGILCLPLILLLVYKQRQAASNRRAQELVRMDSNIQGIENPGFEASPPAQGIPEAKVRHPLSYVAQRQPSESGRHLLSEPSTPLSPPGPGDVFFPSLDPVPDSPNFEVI

T2: full length cynomolgus monkey C10orf54 (construct CC4) (cynomolgus monkey, UniProt Q9H7M9 33-311 (human entry))
T2 construct: also called C10orf54 Construct 4
T2 chain: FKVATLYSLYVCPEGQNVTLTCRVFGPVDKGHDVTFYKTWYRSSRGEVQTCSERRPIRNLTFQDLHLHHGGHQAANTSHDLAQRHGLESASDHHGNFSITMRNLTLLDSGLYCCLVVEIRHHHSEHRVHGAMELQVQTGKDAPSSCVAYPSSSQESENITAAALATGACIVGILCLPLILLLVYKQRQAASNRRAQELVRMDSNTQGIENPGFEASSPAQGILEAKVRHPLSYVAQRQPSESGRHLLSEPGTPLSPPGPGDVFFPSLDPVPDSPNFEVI

T3: chimeric C10orf54: human IgV with mouse STALK (construct CC5) (human/mouse chimera)
T3 construct: also called C10orf54 Construct 5; hsIGVmmSTALK
T3 chain: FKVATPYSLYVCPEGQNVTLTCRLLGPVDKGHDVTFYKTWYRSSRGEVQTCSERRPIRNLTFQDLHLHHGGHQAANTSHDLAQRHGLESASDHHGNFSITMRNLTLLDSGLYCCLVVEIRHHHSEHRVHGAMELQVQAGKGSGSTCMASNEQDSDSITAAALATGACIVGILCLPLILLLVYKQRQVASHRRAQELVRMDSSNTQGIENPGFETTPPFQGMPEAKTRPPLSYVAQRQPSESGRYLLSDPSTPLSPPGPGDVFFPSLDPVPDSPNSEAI

T4: chimeric C10orf54: first half of IgV mouse and remainder (including loop) human (construct CC8) (human/mouse chimera, UniProt Q9H7M9 33-311)
T4 construct: also called C10orf54 Construct 8; mmabChsC10
T4 chain: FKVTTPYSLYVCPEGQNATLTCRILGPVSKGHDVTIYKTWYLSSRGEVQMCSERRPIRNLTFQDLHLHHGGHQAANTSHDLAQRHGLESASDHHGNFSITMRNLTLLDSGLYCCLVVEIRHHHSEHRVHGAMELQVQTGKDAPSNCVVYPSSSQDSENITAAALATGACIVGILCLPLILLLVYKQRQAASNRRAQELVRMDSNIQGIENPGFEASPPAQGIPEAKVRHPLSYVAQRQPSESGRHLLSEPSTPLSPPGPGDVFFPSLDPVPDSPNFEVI


Experiments:
[1] = molecular target: T1, C10orf54 (antigen of the KD values in …); test: method and antigen form not stated
[2] = molecular target: T2, full length cynomolgus monkey C10orf54 …; test: flow cytometry, transfected 293t cells, 2 ug/ml; stain = MFI >=20-fold over isotype control
Method: (§1) To investigate epitope diversity of the anti-human C10orf54 antibodies, 293t cells were transfected with 1 of 10 different C10orf54 expression constructs that co-express a fluorescent marker. Two days after transfection, cells were stripped from the tissue culture plate, stained with 2 μg/ml anti-human C10orf54 antibody , washed, stained with anti-mouse IgG-Fc Alexa Fluor 647 polyclonal antibody, washed, and stained with the viability dye 4′,6-Diamidino-2-Phenylindole, Dihydrochloride. Upon acquisition of 10,000 live events on a flow cytometer, live cells marked with the fluorescent marker were analyzed for the degree of staining by the anti-human C10orf54 antibody. When the median fluorescence intensity fold-change relative to an isotype control antibody was at least 20-fold, the antibody was considered to stain the C10orf54 expression construct in question.

[3] = molecular target: T3, chimeric C10orf54: human IgV with mouse …; test: as above
Method: as §1

[4] = molecular target: T4, chimeric C10orf54: first half of IgV …; test: as above
Method: as §1

Row | Binder | Kd [1] [nM] | binding result [2] | binding result [3] | binding result [4]
1 | murine monoclonal antibody 215A (antibody, V domains shown, Mouse hybridoma antibody) VH: EVQLQQSGPELVKPGASMKISCKASGFSFTGYTMNWVKQSHGKNLEWIGLISPYNGGTSYNQKFKGKATLTVDKSSSTAYMELLSLTSEDSAVYYCARRAYGYAMDYWGQGTSVTVSS VL: QIVLTQSPAIMSASPGEKVTMTCSASSSVSYMFWYQQKPGSSPRLLIYDTSNLASGVPLRFSGSGSGTSYSLTISRMEAEDAATYYCQQWSSYPFTFGSGTKLEIK | 1.52 | binds | binds | binds
2 | murine monoclonal antibody 46A (antibody, V domains shown, Mouse hybridoma antibody) VH: QVQLQQAGGELVRPGVSVKISCKGSGYTFTDYGMHWVKQSHAKSLEWIGIINTYYGDATYNQKFKGKATMTVDKSSSTAYMELARLTSEDSAIYYCARRAGTAMDYWGQGTSVTVSS VL: SIVMTQTPKFLLVSAGDRVTITCKASQSVSNDVAWYQQKPGQSPKLLIYYASNRYTGVPDRFTGSGYGTDFTFTISTVQAEDLAVYFCQQDYGSPRTFGGGTKLEIK | 1.88 | binds |  | binds
3 | murine monoclonal antibody 97A (antibody, V domains shown, Mouse hybridoma antibody) VH: QVQLQQSGAELVRPGVSVKISCKGSGYTFTDYGMHWVKQSHAKSLEWIGVIDTYYGDASNNQKFKGKATMTVDKSSSTAYMELARLTSEDSAIYYCARRAGNAMDYWGQGTSVTVSS VL: SIVMTQTPKFLLVSAGDRVAITCKASQSVSNDVAWYQQKPGQSPKLLIYYASNRYTGVPDRFTGSGYGTDFTFTISTVQAEDLAVYFCQQDYGSPRTFGGGTKLEIK | 1.99 |  |  | 
4 | murine monoclonal antibody 53A (antibody, V domains shown, Mouse hybridoma antibody) VH: EVQLQQSGPELVKPGASVKMSCKASGYTFTSYFMHWVKQKPGQGLEWIGYIYPYNDGTKYNEKFKGKATLTSDKSSSTAYMELSSLTSEDSAVYYCARFDYDTLRYWGQGTTLTVSS VL: DVVLTQTPLSLPVNIGDQASISCKSTKSLLNSDGFTYLDWYLQKPGQSPQLLIYLVSNRFSGVPDRFSGSGSGTDFTLKISRVEAEDLGVYYCFQSNYFPWTFGGGTKLEIK | 0.321 | binds | binds | binds
5 | murine monoclonal antibody 259A (antibody, V domains shown, Mouse hybridoma antibody) VH: EVQLQQSGPELVKPGASVKMSCKASGYTFTSYFMHWVKQKPGQGLEWIGYIYPYNDGTKYNEKFKGKATLTSDKSSSTAYMDLSSLTSEDSAVYYCARFDYDTLRYWGQGTTLTVSS VL: DVVLTQTPLSLPVNIGDQASISCKSTKSLLNSDGFTYLDWYLQKPGQSPQLLIYLISNRFSGVPDRFSGSGSGTDFTLKISRVEAEDLGVYYCFQSNYFPWTFGGGTKLEIK | 0.266 | binds | binds | binds
6 | murine monoclonal antibody 39A (antibody, V domains shown, Mouse hybridoma antibody) VH: QVQLQQSGAELMKPGASVKISCKATGYTFSSNWIEWVKQRPGHGLEWIGEILPGSGSTSYNEKFKGKATFTADTSSNTAYMQLSSLTSEDSAVYYCARWLLYYYAMDYWGQGTSVTVSS VL: DVLMTQTPLSLPVSLGDPASISCRSSQSIVHNNGNTYLEWYLQKPGQSPKLLIYKVSNRFSGVPDRFSGSGSGTDFTLKISRVEAEDLGVYYCFQGSHVPYTFGGGTKLEIK | 5.79 | binds | binds | binds
7 | murine monoclonal antibody 124A (antibody, V domains shown, Mouse hybridoma antibody) VH: QVQLQQSGAELMKPGASVKISCKATGYTFSSNWIEWVKQRPGHGLEWMGEILPGSGSTSYNEKFKGKATFTADTSSNTAYMQLSSLTSEDSAVYYCARWLLYYYAMDFWGQGTSVTVSS VL: DVLMTQTPLSLPVSLGDQASISCRSSQSIVHNNGNTYLEWYLQKPGQSPKLLIYKVSNRFSGVPDRFSGSGSGTDFTLKISRVEAEDLGVYYCFQGSHVPYTFGGGTKLEIK | 3.61 | binds | binds | binds
